Source: US20240158477A1

How the values were obtained:
[1] = target: RBD-Fc (SARS-CoV-2 S protein amino acids 319-541 with human IgG1 Fc) (SARS-CoV-2; human) (UniProt P0DTC2)
[2] = target: SARS-CoV-2 S protein (wildtype) (SARS-CoV-2) (UniProt P0DTC2); test: cell-based or functional assay

Substance: Fc tagged VHH72 (Fc fusion)
- EC50 (read off the curve) [1]: 0.2 nM
- IC50, authentic SARS-CoV-2 neutralization on Vero-E6 cells (viral RNA by RT-PCR) [2]: 13.8 nM
